Measured values from PMC6949295 (2020).

B1: Exo70-Flag [rat] / HA-Sec8 [not stated] (parent)
chain 1: MIPPQEASARRREIEDKLKQEEETLSFIRDSLEKSDQLTKNMVSILSSFESRLMKLENSIIPVHKQTENLQRLQENVEKTLSCLDHVISYYHVASDTEKIIREGPTGRLEEYLGSMAKIQKAVEYFQDNSPDSPELNKVKLLFERGKESLESEFRSLMTRHSKVISPVLVLDLISADDELEVQEDVVLEHLPESVLQDVIRISRWLVEYGRNQDFMNVYYQIRSSQLDRSIKGLKEHFRKSSSSSGVPYSPAIPNKRKDTPTKKPIKRPGRDDMLDVETDAYIHCVSAFVRLAQSEYQLLMGIIPEHHQKKTFDSLIQDALDGLMLEGENIVSAARKAIIRHDFSTVLTVFPILRHLKQTKPEFDQVLQGTAASTKNKLPGLITSMETIGAKALEDFADNIKNDPDKEYNMPKDGTVHELTSNAILFLQQLLDFQETAGAMLASQETSSSATSYNSEFSKRLLSTYICKVLGNLQLNLLSKSKVYEDPALSAIFLHNNYNYILKSLEKSELIQLVAVTQKTAERSYREHIEQQIQTYQRSWLKVTDYIAEKNLPVFQPGVKLRDKERQMIKERFKGFNDGLEELCKIQKAWAIPDTEQRDKIRQAQKSIVKETYGAFLHRYSSVPFTKNPEKYIKYRVEQVGDMIDRLFDTSA
chain 2: MAAEAAGGKYRSTVSKSKDPSGLLISVIRTLSTSDDVEDRENEKGRLEEAYEKCDRDLDELIVQHYTELTTAIRTYQSITERITNSRNKIKQVKENLLSCKMLLHCKRDELRKLWIEGIEHKHVLNLLDEIENIKQVPQKLEQCMASKHYLSATDMLVSAVESLEGPLLQVEGLSDLRLELHSKKMNLHLVLIEELHRHLYIKSTSRVVQRNKEKGKMSSHGKDASPGPLIDVSNISTPRKFLDATQYSAAGSSSVREMNLQDIKEDLDCDPEENSTLFMGILIQGLARLKKIPETVKAIKERLEQELKQIVKRSTTQVADSAYQRGESLTVDNQPRLLLELLELLFDKFNAVASAHSIVLGYLQDSVGTQPTQQEEIKLYDMADVWVKIQDVLQMLLTEYLDMKNTRTASEPSAQLSYASTGREFAAFFAKKKPQRPKNSLFKFESSSHAISMSAYLREQRRELYSRSGELQGGPDDNLIEGGGTKFVCKPGARNITVIFHPLLRFIQEIEHALGLGPAKQCLLREFLTIYIKNIFLNQVLTEINKEIEGVTKTSDPLKILANADTMKVLGVQRPLLQSTIIVEKTVQDLMNLMHDLSAYSDQFLNMVCVKLQEYKDTCSTAYRGIVQSEEKLVISASWAKDDDISRLLKSLPNWTNMAQPKQLRPKREEEEDFIRAAFGKESEVLIGNLGDKLIPPQDILRDVSDLKALANMHESLEWLAGRTKSAFSSLSASQMLSPAQESHVNMDLPPVSEQIMQTLSELAKSFQDMADRCLLVLHLEVRVHCFHYLIPLAKEGNYAIVANVESMDYDPLVVKLNKDISAMEEAMSASLQQHKFQYIFEGLGHLISCILINGAQYFRRISESGIKKMCRNIFVLQQNLTNITMSREADLDFARQYYEMLYNTADELLNLVVDQGVKYTELEYIHALTLLHRSQTGVGDQTTQNTRLQRLKEIICEQAAIKQATKDKKITTV
B2: Exo70-Flag [rat] / HA-Sec6 [not stated] (parent)
chain 1: B1 chain 1
chain 2: MCKDSACFSTMKETDLEAVATAVQRVAGMLQRPDQLDKVEQYRRREARKKASVEARLKAAIQSQLDGVRTGLSQLHNALNDVKDIQQSLADVSKDWRQSINTIESLKDVKDAVVQHSQLAAAVENLKNIFSVPEIVRETQDLIEQGALLQAHRKLMDLECSRDGLMCEQYRMDSGNKRDMTLIHGYFGSTQGLSDELAKQLWMVLQRSLVTVRRDPTLLVSVVRIIEREEKIDRRILDRKKQTGFVPPGRPKNWKEKMFAVLDRTVTTRIEGTQADTRESDKMWLVRHLEIIRKYVLDDLVIAKNLLVQCFPPHYDIFKNLLSMYHQALSIRMQDLASEDLEANEIVSLLTWVLNTYTSAEMMGNVELAPEVDVNALEPLLSPNVVSELLDTYMSTLTSNIIAWLRKALETDKKDWSKETEPEADQDGYYQTTLPAIVFQMFEQNLQVAAQISEDLKTKVLVLCLQQMNSFLSRYKEEAQLYKEEHLRNRQHPHCYVQYMVAIINNCQTFKESIISLKRKYLKPETEESLCQSQPSMDGILDAIAKEGCSSLLEEVFLDLEQHLNELMTKKWMLGSNAVDIICVTVEDYFNDFAKIKKPYKKRMTAEAHRRVVVEYLRAVMQKRISFRSAEERKEGAEKMVREAEQLRFLFRKLASGFGEDADGHCDTIVAVAEVIKLTDPSLLYLEVSTLVSKYPDIRDDHIGALLALRGDASRDMKQTIMETLEQGPMQASPNYVPIFQEIVVPSLNVAKLLK
B3: Exo70 wild type, HA-tagged and Flag-tagged copies co-expressed [rat] / itself (parent)
chain: B1 chain 1

Variants of: B1
Assay: co-immunoprecipitation (IP: HA, blot: Flag)
Conditions: with HA-Sec8; 293T cells; parent: 1.03

response (relative band intensity) | Variant
0.45 | chain 1 S47D S59D S89D

Variants of: B2
Assay: co-immunoprecipitation (IP: HA, blot: Flag)
Conditions: with HA-Sec6; 293T cells; parent: 1

response (relative band intensity) | Variant
0.31 | chain 1 S47D S59D S89D

Variants of: B3
Assay: co-immunoprecipitation (IP: HA, blot: Flag)
Conditions: with itself; 293T cells; with Myc-ULK1 co-expressed; parent: 0.35

Variant | response (relative band intensity)
chain 1 S47A S59A S89A | 2.44
chain 1 S47A | 0.87

Other lines, results leading:

response (relative band intensity) | Variant
1.16 | chain 1 S59A
1 | chain 1 S89A

Same assay, conditions: with itself; 293T cells; without Myc-ULK1; parent: 1

Variant | response (relative band intensity)
chain 1 S47A S59A S89A | 1.49
chain 1 S47A | 1

Other lines, results leading:

response (relative band intensity) | Variant
1.31 | chain 1 S59A
1.17 | chain 1 S89A

Same assay, conditions: with itself; 293T cells; parent: 1

response (relative band intensity) | Variant
0.41 | chain 1 S59D S89D
0.18 | chain 1 S47D S89D
0.03 | chain 1 S47D S59D S89D
0.46 | chain 1 S89D
